The DeepSol protein solubility set

Experiment: soluble on expression in E. coli; label from the status in PepcDB or PDB records

Sequence	soluble on expression in E. coli
FPDGTLGMDAAVQEDHDNGTQLDSLTLASINTDFAFSLYKELVLKNPDTNIVFSPLSISAALALVSLGAKGNTLEEILEGLKFNLTETSEADIHQGFGHLLQRLNQPKDQVQISTGSALFIEKRQQILTEFQEKAKTLYQAEAFTADFQQPRQAKKLINDYVRKQTQGMIKELVSDLDKRTLMVLVNYIYFKAKWKVPFDPLDTFKSEFYCGKRRPVIVPMMSMEDLTTPYFRDEELSCTVVELKYTGNASALFILPDQGRMQQVEASLQPETLRKWKNSLKPRMIDELHLPKFSISTDYSLEDVLSKLGIREVFSTQADLSAITGTKDLRVSQVVHKAVLDVAETGTEAAAATGVKFVPMSAKLYPLTVYFNRPFLIMIFDTETEIAPFIAKIANPK	soluble
FPVETVQIPVNDEYAVHGWLAHGMSGHGAVLLVHSMRSNRLEMLGRARFLNNQGYHVLMIDLQAHGETPGDRITFGARESADVAAAVGYLRSTFPHDRIAAIGATLGAAAIVLANPPLKLDAMILESLHPTFAEAVANRLKLHLGNTGEYLQFLLLPYFSFLLDLPVNQLNPVDRIGNIAIPVLFIAGTLDRHTTQSEVKRLYDAALPPKELWIVEGAGHYNMHTFAGKSYEMQIADFLSTYL	not soluble
FQGNPCECPRALHRVCGSDGNTYSNPCMLTCAKHEGNPDLVQVHEGPCDEHDHDF	soluble
FSDFIANHIFMESRCEGIIRITAISLPFMCIHNCLSNYYYSQKESFLPASSQLVEQLVRIGTIILYVRIKNVSTISIADAVTGNIFGEFAAATYCAIPLFFRSIHNKSMMQKLSCSLREYRYIVKYAFPINANQTVLHLLEGAEAILIPAILCMHGLTKDNAISQFGILTGM	not soluble
FSNKRVLVEKEGEAGIAVMKFKNPPVNSLSLEFLTEFVISLEKLENDKSIRGVILTSERPGIFSAGLDLMEMYGRNPAHYAEYWKAVQELWLRLYLSNLTLISAINGASPAGGCLMALTCDYRIMADNSKYTIGLNESLLGIVAPFWLKDNYVNTIGHRAAERALQLGTLFPPAEALKVGLVDEVVPEDQVHSKARSVMAKWFTIPDHSRQLTKSMMRKATADNLIKQREADIQNFTSFISRDSIQKSLHVYLEKLKQKKG	soluble
FSSREQPQQNEGQIQKLNALKPDNRIESEGGLIETWNPNNKPFQCAGVALSRCTLNRNALRRPSYTNGPQEIYIQQGKGIFGMIYPGCPSTFEEPQQPQQRGQSSRPQDRHQKIYNFREGDLIAVPTGVAWWMYNNEDTPVVAVSIIDTNSLENQLDQMPRRFYLAGNQEQEFLKYQQEQGGHQSQKGKHQQEEENEGGSILSGFTLEFLEHAFSVDKQIAKNLQGENEGEDKGAIVTVKGGLSVIKPPTDEQQQRPQEEEEEEEDEKPQCKGKDKHCQRPRGSQSKSRRNGIDETICTMRLRHNIGQTSSPDIYNPQAGSVTTATSLDFPALSWLRLSAEFGSLRKNAMFVPHYNLNANSIIYALNGRALIQVVNCNGERVFDGELQEGRVLIVPQNFVVAARSQSDNFEYVSFKTNDTPMIGTLAGANSLLNALPEEVIQHTFNLKSQQARQIKNNNPFKFLVPPQESQKRAVA	soluble
FVNKDQIAKDVKQFYDQALQQAVVDDDANNAKAVVKTFHETLDCCGSSTLTALTTSVLKNNLCPSGSNIISNLFKEDCHQKIDDLFSGKH	soluble
GAEFKEKPEAPTEQLDVACGQENLPVGAWPPGAAPAPFQYTPDHVVGPGADIDPTQITFPGCICVKTPCLPGTCSCLRHGENYDDNSCLRDIGSGGKYAEPVFECNVLCRCSDHCRNRVVQKGLQFHFQVFKTHKKGWGLRTLEFIPKGRFVCEYAGEVLGFSEVQRRIHLQTKSDSNYIIAIREHVYNGQVMETFVDPTYIGNIGRFLNHSCEPNLLMIPVRIDSMVPKLALFAAKDIVPEEELSYDYSGRYLNLTVSASKERLDHGKLRKPCYCGAKSCTAFLPFDSS	soluble
GAMAPSTIWHCFLKGTRLCFHKESNKEWQDVEDFARAASCDNEEEIQMGTHKGYGSDGLKLLSHEESVSFGESVLKLTFDPGTVEDGLLTVECKLDHPFYVKNKGWSSFYPSLTVVQHGIPCCEIHIGDVCLPPGHPDAINF	soluble
GAMATSESPDAYTESFGAHTIVKPAGPPRVGQPSWNPQRASSMPVNRYRPFAEEVEPIRLRNRTWPDRVIDRAPLWCAVDLRDGNQALIDPMSPARKRRMFDLLVRMGYKEIEVGFPSASQTDFDFVREIIEQGAIPDDVTIQVLTQCRPELIERTFQACSGAPRAIVHFYNSTSILQRRVVFRANRAEVQAIATDGARKCVEQAAKYPGTQWRFEYSPESYTGTELEYAKQVCDAVGEVIAPTPERPIIFNLPATVEMTTPNVYADSIEWMSRNLANRESVILSLHPHNDRGTAVAAAELGFAAGADRIEGCLFGNGERTGNVCLVTLGLNLFSRGVDPQIDFSNIDEIRRTVEYCNQLPVHERHPYGGDLVYTAFSGSHQDAINKGLDAMKLDADAADCDVDDMLWQVPYLPIDPRDVGRTYEAVIRVNSQSGKGGVAYIMKTDHGLSLPRRLQIEFSQVIQKIAEGTAGEGGEVSPKEMWDAFAEEYLAPVRPLERIRQHVDAADDDGGTTSITATVKINGVETEISGSGNGPLAAFVHALADVGFDVAVLDYYEHAMSAGDDAQAAAYVEASVTIASPAQPGEAGRHASDPVTIASPAQPGEAGRHASDPVTSKTVWGVGIAPSITTASLRAVVSAVNRAAR	soluble
GAMEPKASCPAAAPLMERKFHVLVGVTGSVAALKLPLLVSKLLDIPGLEVAVVTTERAKHFYSPQDIPVTLYSDADEWEMWKSRSDPVLHIDLRRWADLLLVAPLDANTLGKVASGICDNLLTCVMRAWDRSKPLLFCPAMNTAMWEHPITAQQVDQLKAFGYVEIPCVAKKLVCGDEGLGAMAEVGTIVDKVKEVLFQHSGFQQS	soluble
GAMGQTTFTELMQQLFLKLGLNHQVNENDVYTFEVDGHIQVLIACYHQQWVQLFSELGADLPTNDNLFGEHWPAHVQGRLDGKSILWSQQSLVGLDIDEMQAWLERFIDDIEQRKEPQNTKFQPNSTSPILFI	soluble
GAMGSMERASLIQKAKLAEQAERYEDMAAFMKGAVEKGEELSCEERNLLSVAYKNVVGGQRAAWRVLSSIEQKSNEEGSEEKGPEVREYREKVETELQGVCDTVLGLLDSHLIKEAGDAESRVFYLKMKGDYYRYLAEVATGDDKKRIIDSARSAYQEAMDISKKEMPPTNPIRLGLALNFSVFHYEIANSPEEAISLAKTTFDEAMADLHTLSEDSYKDSTLIMQLLRDNLTLWTADNAGEEGGEAPQEPQS	soluble
GAMGSSRKSKAELQSEERKRIDELIESGKEEGMKIDLIDGKGRGVIATKQFSRGDFVVEYHGDLIEITDAKKREALYAQDPSTGCYMYYFQYLSKTYCVDATRETNRLGRLINHSKCGNCQTKLHDIDGVPHLILIASRDIAAGEELLYDYGDRSKASIEAHPWLKH	soluble
GAMGSWNPKYDTRTLWTTPDTSPNCTIAQDKDSKLTLVLTKCGSQILANVSLIVVAGKYHIINNKTNPKIKSFTIKLLFNKNGVLLDNSNLGKAYWNFRSGNSNVSTAYEKAIGFMPNLVAYPKPSNSKKYARDIVYGTIYLGGKPDQPAVIKTTFNQETGCEYSITFNFSWSKTYENVEFETTSFTFSYIAQE	soluble
GAPRSHEVPLLVTLEELYLGKRKKIKVTRKRFIEHKVRNEENIVEVEIKPGWKDGTKLTYSGEGDQESPGTSPGDLVLIIQTKTHPRFTRDDCHLIMKVTIPLVRALTGFTCPVTTLDNRNLQIPIKEIVNPKTRKIVPNEGMPIKNQPGQKGDLILEFDICFPKSLTPEQKKLIKEALD	soluble
GAQLLGVHPKGESQRASRGGGQATKMSSAVGPRGPRPPTVPPPMQELPDLSHLTEEERNIIMAVMDRQKEEEEKEEAMLKCVVRDMAKPAACKTPRNAENQPHQPSPRLHQQFESYKEQVRKIGEEARRYQGEHKDDAPTCGICHKTKFADGCGHLCSYCRTKFCARCGGRVSLRSNNEDKVVMWVCNLCRKQQEILTKSGAWFFGSGPQQTSQDGTLSDTATGAGSEVPREKKARLQERSRSQTPLSTAAASSQDAAPPSAPPDRSKGAEPSQQALGPEQKQASSRSRSEPPRERKKTPGLSEQNGKGALKSERKRVPKTSAQPVEGAVEERERKERRESRRLEKGRSQDYPDTPEKRDEGKAADEEKQRKEEDYQTRYRSDPNLARYPVKPPPEEQQMRMHARVSRARHERRHSDVALPRTEAGAALPEGKAGKRAPAAARASPPDSPRAYSAERTAETRAPGAKQLTNHSPPAPRHGPVPAEAPELKAQEPLRKQSRLDPSSAVLMLRNDSLSSDQSESVRPSPPKPHRSKRGGKKRQMSVSSSEEEGVSTPEYTSCEDVELESESVSEKGDLDYYWLDPATWHSRETSPISSHPVTWQPSKEGDRLIGRVILNKRTTMPKDSGALLGLKVVGGKMTDLGRLGAFITKVKKGSLADVVGHLRAGDEVLEWNGKPLPGATNEEVYNIILESKSEPQVEIIVSRPIGDIPRIPESSHPPLESSSSSFESQKMERPSISVISPTSPGALKDAPQVLPGQLSVKLWYDKVGHQLIVNVLQATDLPARVDGRPRNPYVKMYFLPDRSDKSKRRTKTVKKILEPKWNQTFVYSHVHRRDFRERMLEITVWDQPRVQEEESEFLGEILIELETALLDDEPHWYKLQTHDESSLPLPQPSPFMPRRHIHGESSSKKLQRSQRISDSDISDYEVDDGIGVVPPVGYRSSARESKSTTLTVPEQQRTTHHRSRSVSPHRGNDQGKPRSRLPNVPLQRSLDEIHPTRRSRSPTRHHDASRSPVDHRTRDVDSQYLSEQDSELLMLPRAKRGRSAECLHTTR	soluble
GAQVSSQKVGAHENSNRAYGGSTINYTTINYYKDSASNAASKQDYSQDPSKFTEPLKDVLIKTAPALN	soluble
GARNSVLRGKKADELERIRLRPGGKKKYRLKHIVWAANKLDRFGLAESLLESKEGCQKILTVLDPMVPTGSENLKSLFNTVCVIWCIHAEEKVKDTEGAKQIVRRHLVAETGTAEKMPSTSRPTAPSSEKGGNY	soluble
GASMDAIKKKMQMLKLDKENALDRAEQAEADKDFYFGKLRNIELICQENEGENDPVLQRIVDILYATDEGFVIPD	soluble
GCGVEEKTEVQLLKEMPKPKAMTIDPSLSQKEATEMVHAAQRFYAFWDTGKEELIPQTVTENFFDHTLPKGRPQGTEGLKFAAQNFRKIVPNIHCEIEDLLVVGDKVTARLSFTGTHNDKKIDFFAIDILHVKDGKITEDWHLEDNLTLKQQLGLIAEE	soluble
GERIDIRISPYLQDLFDAARADGVYPIVASGYRTTEKQQEIMDEKVAEYKAKGYTSAQAKAEAETWVAVPGTSEHQLGLAVDINADGIHSTGNEVYRWLDENSYRFGFIRRYPPDKTEITGVSNEPWHYRYVGIEAATKIYHQGLCLEEYLNTEK	not soluble
GERLSEAEVLSLFDLPLPELAAAAHEVRLKKTDPEVVTFLIDRNINYTNVCTVACAFCAFYRTKRQKDAYTLSYEEIARKVEELYQVGGRRILMQGGVNPELPLVWYLDLLRYLKSRFPDLRIDAFSPEEILGLERLTGLRAEAILEKLKEAGLDGLPGAGAEILVDEVRLKAAPARIRTADWYRIVDAAQALGLYTLATMVIGFGEGPKERTAHLLGLRAQQDRALERYENGFAAFALWTLQVEHTRLKGKAPGATAHEYLKTLAVARLALDNFAHFQASWPTLGFKVAQAALYYGADDFGSTMLEENVVSAAGGHGRTHATVRQIVRHIVDAGFKPAER	not soluble
